Assay results as given in the DeepSol protein solubility set.

Experiment: soluble on expression in E. coli; label from the status in PepcDB or PDB records
With “MLKVSDLLTLEELPGITLVAGHKNQDQPILKVNILENPDILDWLTAGELLLTTGYIFKDDRKLQKNFLKELAKHHCAALGFKTQRYFEEVPPDLIKLADEMNVPILAIPYNYTFSQIADVLKSRVTLEQFDMNAQETALHNKIYQILETGSSSFHLLQDLAETIQNPVLLLNDHFEGVNFFDLPKNPIRISSILEDRQETSEFQKQLLEQSHPLLRFYQEPIHLQLKLQNQVVPIEIYPIKKKNVILYYLLVWNTLAPLRPVDVAHFKITAHYLLLQLQLEYSRKFEEYQQRNELFFKLFAHEKRDQAVFQQFQQYYRLAIDKPYAILLISLTLNERQRQERMSILGNQLNQVILGDKQKIVCIEIDSSFVLLVENPPEKEGDYLKMMQRLAQSSINQLMKVQEDVELFLTIGPKIQGLTQIHESYQQAIDVLAFQRQFVAEKPEMRIASYSNFHFRQTLQRYFLEEGQATLRKKYLQPLQKSDQQQHTDFVHTLNVYFQSKRNLSQTAKKLFIHRNTLLQRLEKIEQLVLLDFDKEVDLLALEVALFVGT” the “soluble on expression in E. coli” value was “not soluble”. In the case of “MSLAREDYAAQVALLVRVLPYVAKEEIFALKGGTAINLFYRDLPRLSVDIDLTYLPVKDRAESLVEINDAMDRIAAAIEGGITGAKAQRIAGGGGGATRALARLGTAEIKIETSPVTRGVVHDPEQREVSEAVEEEFGYATMNIVSFEDLFGGKLHAALDRQHPRDLYDVKLLYENEGFTDELFRTFLIYVASSPRPPHELLNPNLIDLDQPYAREFEGMTKEAVDLAELIATRDRLIGDIQSRLNDDAKRFLRTLHEGDPDFDAIDRPQGAGLPAVRWKLINVNNPNKNAQAAFTGAVVELLPFCGEGHHHHHH”, the “soluble on expression in E. coli” value is reported as “not soluble”. With “MERYGYCIFCDDIRTEAGGKLSFIGCYNSAMFVTNEFPLSLPKLCVHFNVFSPADQPYKSLRVRCYLPGEDKPIAEESIEVPALQDQINLLTSLPKDQPMMPFIVVAASLIFSPCEIKSPGMIHVRAVINDSPTELHLGSLAVSSQATPQVALEHGPAAIN” the “soluble on expression in E. coli” value was “not soluble”. In the case of “SLCDKIFHNLSGKTLVATPYVITKGIYHKSLIYMLSHTEEGAIGLIFNRLVNHVDLKSFFKIKEDKITSQVIVPIYLGGPIEHEKGFFLHSRDYNKNLLLDFHNDLAVSSNLEISEDIAFGQGPKNSLFIVGYTAWKPGQLEEELEKNLWLVMDCNKEFIFADNPENKWHNALKHLGIDEMYFSSQIGNA”, the “soluble on expression in E. coli” value is reported as “soluble”. With “MAAASISAIGCNQTLIGTSFYGGWGSSISGEDYQTMLSKTVAPPQQARVSRKAIRAVPMMKNVNEGKGLFAPLVVVTRNLVGKKRFNQLRGKAIALHSQVITEFCKSIGADAKQRQGLIRLAKKNGERLGFLA” the “soluble on expression in E. coli” value was “not soluble”. In the case of “MGSDKIHHHHHHMHEHFMTPPPLSVTGKPAIRIGCAGWGIPPQHAALFPPGGGHLERYARLFDTVEIDSSFYRPHQHKTYVRWADTVPDSFRFWVKTPREITHQRRLLECEDSLLRFLEEISGLGYKLGGILVQLPPSLALDVPSAQAFFTLLRQHYAGVAACEPRHASWFSMQGEKLLQDFRLARVAADPAKFPTAGTPGGDTGFSYYRLHGAPEIYYSSYPEAYLRQLAHTLQASIGPAWCIFDNTARGGATANAWDIMRLLDKTMHQD”, the “soluble on expression in E. coli” value is reported as “not soluble”. With “MHLSSSLLLVAAALFALPDGTFECATNGLCGYQPSCAAYSQPRPSCGCASSYGCGSYGCYRLRARGAKSYQPKRGRSRVTVGGSSSEEAREVLRQRMAMERVRRKEQLTSSEELDLVSPSVLRNSKSEQPINPDRAFYECCIDRKLPDACLSKCSFGAFTKPTLQAMYFKQDPCPLDAMKEMQFCAAQGRDHRDCCARNGVTTTLAGPKCLSFCDQRLGRNQQLDMSYVPCFDRFESMKSCFWHDMTRYYKRV” the “soluble on expression in E. coli” value was “not soluble”. In the case of “MHHHHHHSSGRENLYFQGERVFGCDLGEHLLNSGFEVPQVLQSCTAFIERYGIVDGIYRLSGVASNIQRLRHEFDSEHVPDLTKEPYVQDIHSVGSLCKLYFRELPNPLLTYQLYEKFSDAVSAATDEERLIKIHDVIQQLPPPHYRTLEFLMRHLSLLADYCSITNMHAKNLAIVWAPNLLRSKQIESACFSGTAAFMEVRIQSVVVEFILNHVDVLFSGRISMAMQE”, the “soluble on expression in E. coli” value is reported as “soluble”. In the case of “MFYFRNLDGYTFFSFMKQKPRRNLFIGVPPLEGTCTKEVVHEAIKEILFYSYC”, the “soluble on expression in E. coli” value is reported as “not soluble”. With “MSKKIRNTEVDHLFDAILTLENKEECYTFFEDVCTVNELLSISQRYEVAKMLREGKTYLDISNATGASTATISRVNRSLNYGNDGYDMVLERVLKKDE” the “soluble on expression in E. coli” value was “not soluble”. In the case of “MGSDKIHHHHHHMEKQKEVQKEYEEYQYMLDTETWKKELSQFKLSSSEKISKNPKVSIIIANYNNAPYLKKMMDSLVQQTIGIEQLQVMFIDDCSTDHSLKVIEPYLERYPNIEIYQLLENTGGAHGPRNVGIVNARGEYSVFLDADDWYDLNALKYLSDLLDDSHDDFAVSGLIQSTDGHLMLKSKPYYVDGSFKNRSIQELPAEFYGWLGPQAIMLRTSLIHNNNLHFVNQRVADDVLFFYEAMRFSKTITQGERLTTYLNRDADNESLSKSINRTFMLSWLRALSYINQQFPDDLSKERMLARRLEWLIYDFCIRRNTGYPFSKRRLQDFKVQMDQYLGELNFDPSPYFRSDVRQIIWTFLQTNDIDGLYWFIQCQSIRWVLVNRFGYVSKTERSYYYPRLLKRFPAVRMNAYAEATQREGNTLSLNVYTHQKITGFEIKELKNPFETRQRLAFKKISETSYQVELPEKFSNKESRFTIVFDNYLEIGVKDFSKFFA”, the “soluble on expression in E. coli” value is reported as “not soluble”. In the case of “MSLRNKLLTIFDSVDESARIKDAFITQLESSITDAGVLALKLELLDFLTSNLSNYSRTMTISHLLLGFQVSNVISLGPNLATFISSGTSLLDSLISVLEASLNSITKDNIDYAPMRLATAALEIILKLCRNPLTSGLLYSYLIKENFFERIMILDPQVTRFTTWNGSPFDNSTEEKCKNFIESESVGAFLSFLAYRNYWTQYLGLFIHKISFSGTKSEVLTYVNYLISNTMYSVRLFSFLDPLNYGNICEPKETLSIFTNVPLNLEQVTLNKYCSGNIYDFHKMENLMRLIKRVRAESLHSNEGHHHHHH”, the “soluble on expression in E. coli” value is reported as “soluble”. In the case of “MGSDKIHHHHHHATETEKDQRKFDYFFYEGLNLKNAGKFDAAYDAFNHCLEIDSTAAPVLYELSSFYVQLNRPEKAVEMLKRAVANSKDNFTYKMALASITRNLGMYGEAAEEYEELVRDYPEKEELNYYLADALTQAGEIGKAIEAYDALESVMGMNEAISMQKYKLYVQLEKPEEAFKEIEKLAAKYPMEARYQIVLGDLHLENGEMDKALACYQKANEIDPTDPYYIVSMANYYEAKGDKEAAEQQIRSALVNEKLDVETKVNILSRYILKLQQTKQGTENANHLFQTLLEQHPEDIDLKLMYGGLLMAQGKTEEAKFQFQLVTEMEPGNAGAWQQLLNLALKGEDIPEVIRICTACMELFPESPEYYFYLGIAYYQQQKYQEALNTYYAGLNIIPKENLPLKSDFYGQIGDIYYQMGQLDQAYKAYDEALKYNDKNVVVLNNYSYFLSLEKKDLKKAERMSAQCIKLEPDNATYLDTYAWIFFVQGNYTLAKIYIESALEKDKTKSAELVDHYGDILFMNGDKEKAVEQWKKAKEMGKDSEILNRKIAEQQYIEDENAK”, the “soluble on expression in E. coli” value is reported as “not soluble”. With “MSLARHRGKTEKLYVIPLGGLGEIGKNCMVVQYGDDIIVIDAGLAFPEEEMLGIDIVIPDFTYLLENREKVRGILITHGHEDHIGAVAYLLRNINIPVYATRLTLGLIEGKLAEMGMKLPAESKAVRAGDQVKLGPFTCEFIRVNHSIPDACAIAVTTPVGTILHTGDFKFDQTPIDGEFADYRRLTELGKRGILALLSDSTNAERPGYTPSERSVRPNMERVFREAKGRILMATFASNVHRIQQAIELAAEMGKKVAVVGRSMENTVRIALELGYLNVPEGTMVTVDELRRVPLNQQVILTTGSQGEPMAALSRMAVNDHKAIELYPGDTVLFAATAIPGNEKSVARTVNNLYRRGAEVIYDRSAGVHVSGHASQEEQKLMINLTRPKFFVPIHGEYRMLLKHKQLAEACGIPSENILIGENGTIFEFTRNSAQITGKVTSGQVLVDGLGVGDVGNIVLRDRKQLAQEGILIVVVAVDREEGTIVGGPDMVSRGFVYVRESEGLLDEAKERVKRALADQMQRGLPEWAVLKSSIRDVLSKYLYDKTHRRPMILPIIIEIEGHHHHHH” the “soluble on expression in E. coli” value was “soluble”. In the case of “MGSDKIHHHHHHMFRLQFRLFPPLRTAMHILLTALLKCLSLLPLSCLHTLGNRLGHLAFYLLKEDRARIVANMRQAGMNPDPKTVKAVFAETAKGGLELAPAFFRKPEDIETMFKAVHGWEHVQQALDKHEGLLFITPHIGSYDLGGRYISQQLPFPLTAMYKPPKIKAIDKIMQAGRVRGKGKTAPTSIQGVKQIIKALRSGEATIVLPDHVPSPQEGGEGVWVDFFGKPAYTMTLAAKLAHVKGVKTLFFCCERLPGGQGFDLHIRPVQGELNGDKAHDAAVFNRNAEYWIRRFPTQYLFMYNRYKMP”, the “soluble on expression in E. coli” value is reported as “not soluble”. In the case of “MTQIIKIDPLNPEIDKIKIAADVIRNGGTVAFPTETVYGLGANAFDGNACLKIFQAKNRPVDNPLIVHIADFNQLFEVAKDIPDKVLEIAQIVWPGPLTFVLKKTERVPKEVTAGLDTVAVRMPAHPIALQLIRESGVPIAAPSANLATRPSPTKAEDVIVDLNGRVDVIIDGGHTFFGVESTIINVTVEPPVLLRPGPFTIEELKKLFGEIVIPEFAQGKKEAEIALAPGMKYKHYAPNTRLLLVENRNIFKDVVSLLSKKYKVALLIPKELSKEFEGLQQIILGSDENLYEVARNLFDSFRELDKLNVDLGIMIGFPERGIGFAIMNRARKASGFSIIKAISDVYKYVNI”, the “soluble on expression in E. coli” value is reported as “soluble”. For “INMEEIREFAKNFKIRRLSLGLTQTQVGQAMTATEGPAYSQSAISRFEKLDITPKSAQKLKPVLEKWLNEAELRNQEGQQNLMEFVGGEPSKKRKRRTSFTPQAIEALNAYFEKNPLPTGQEITEMAKELNYDREVVRVWFSNRRQTLKNT”, the “soluble on expression in E. coli” value was “soluble”. For “STPETLPGHTKAKQPYREDTEWLKGQQIGLGAFSSCYQAQDVGTGTLMAVKQVTYVRNTSSEQEEVVEALREEIRMMSHLNHPNIIRMLGATCEKSNYNLFIEWMAGGSVAHLLSKYGAFKESVVINYTEQLLRGLSYLHENQIIHRDVKGANLLIDSTGQRLRIADFGAAARLASKGTGAGEFQGQLLGTIAFMAPEVLRGQQYGRSCDVWSVGCAIIEMACAKPPWNAEKHSNHLALIFKIASATTAPSIPSHLSPGLRDVALRCLELQPQDRPPSRELLKHPVFRTTW”, the “soluble on expression in E. coli” value was “soluble”. In the case of “MGSDKIHHHHHHMSNRLSVVMIAKNAADLLPDCLGSVSWADEIIVLDSGSTDNTVELARRLGAQVYTHTDWRGYGIQRQRAQDYATGDWVLMIDTDERVTPELRQAILKVLDAPQRGAIYSIARRNYFLGRFMRHSGWYPDRVLRLYERARYRYNDNLVHESLDSLGAEVIPLTGDLLHLTCRDFAGFQQKQLAYAAAWALERHQKGKKTSMAGIFSHTLGAFLKTLLLRGGVLDGKQGWLLAMVNAQYTFTKYTELWALSHGYSEKESS”, the “soluble on expression in E. coli” value is reported as “not soluble”. With “MVGINNWSSNLDAYRILQEAQSLTEEPPHFDTAFPIEPESIAPPEHHNHRYVIGQEEHRVRRLAANRNKGRPSARAFGNARNNSTRN” the “soluble on expression in E. coli” value was “not soluble”. In the case of “LLPLRGLLVFPTMVLHLDVGRKKSVEALEHAMIDDHYILLAAQKEISIDEPIETDIYQIGTYAKVKQMLKLPNGTIRVLVEGLQRAKIEKYVANDAFIEVEMCTLPEDDEDNATENKALMRNVLQLFEQYIKLSKKVSAETLASVSDIAEPGRLADVIASHLPLKIVEKQQLLETTSVKERLLQV”, the “soluble on expression in E. coli” value is reported as “soluble”. In the case of “RTHSGEKPYECYICHARFTQSGTMKMHILQKHTENVAKFHCPHCDTVIARKSDLGVHLRKQHSY”, the “soluble on expression in E. coli” value is reported as “soluble”.
